Source: paper PMC9106695, “The use of high-affinity polyhistidine binders as masking probes for the selection of an NDM-1 specific aptamer”

Assays:
[1] = tested on: hexa-HIS peptide (synthetic); test: MST; conditions: 20 mM Tris-HCl pH 7.4, 140 mM NaCl, 5 mM MgCl2, 1 mM CaCl2, 1 mM KCl; FLAA/MST with 0.1% BSA and 0.05% Tween 20 (FLAA at RT); SPR without BSA, 0.005% Tween 20 …
[2] = biological target: T1, HIS-NDM-1 (New Delhi metallo-beta-lactamase 1) (E. coli, UniProt C7C422 29-270); test: FLAA; signal exceeds initial library; 20 mM Tris-HCl pH 7.4, 140 mM NaCl, 5 mM MgCl2, 1 mM CaCl2, 1 mM KCl; FLAA/MST with 0.1% BSA and 0.05% Tween 20 (FLAA at RT); SPR without BSA, 0.005% Tween 20; conditions: protein: commercial; tags: N-terminal His6
T1 sequence (C7C422 29-270): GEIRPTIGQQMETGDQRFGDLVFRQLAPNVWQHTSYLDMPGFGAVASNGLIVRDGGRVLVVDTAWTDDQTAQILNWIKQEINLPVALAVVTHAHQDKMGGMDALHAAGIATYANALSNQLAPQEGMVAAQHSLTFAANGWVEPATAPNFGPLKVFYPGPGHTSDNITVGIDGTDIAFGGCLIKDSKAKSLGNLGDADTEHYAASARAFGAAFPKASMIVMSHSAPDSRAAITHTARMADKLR

[3] = biological target: T1, HIS-NDM-1 (New Delhi …); test: MST; 20 mM Tris-HCl pH 7.4, 140 mM NaCl, 5 mM MgCl2, 1 mM CaCl2, 1 mM KCl; FLAA/MST with 0.1% BSA and 0.05% Tween 20 (FLAA at RT); SPR without BSA, 0.005% Tween 20; conditions: protein: commercial, tags: N-terminal His6
[4] = biological target: OXA-23 beta-lactamase (A. baumannii) (Acinetobacter baumannii, UniProt Q9L4P2 18-273); test: MST; 20 mM Tris pH 7.4, 140 mM NaCl, 5 mM MgCl2, 1 mM CaCl2, 1 mM KCl, 0.1% BSA, 0.05% Tween 20; conditions: tags: N-His6; label: 5'-Cy5
Chain of OXA-23 beta-lactamase (A. baumannii) (Q9L4P2 18-273): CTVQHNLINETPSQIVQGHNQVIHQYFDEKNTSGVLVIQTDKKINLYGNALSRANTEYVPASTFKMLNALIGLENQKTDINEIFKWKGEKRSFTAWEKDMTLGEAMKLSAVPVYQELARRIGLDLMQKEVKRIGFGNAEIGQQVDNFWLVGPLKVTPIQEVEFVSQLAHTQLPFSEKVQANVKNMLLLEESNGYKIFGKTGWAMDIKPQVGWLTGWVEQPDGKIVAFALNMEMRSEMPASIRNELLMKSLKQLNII

[5] = biological target: T1, HIS-NDM-1 (New Delhi …); test: SPR; aptamer immobilized; 20 mM Tris-HCl pH 7.4, 140 mM NaCl, 5 mM MgCl2, 1 mM CaCl2, 1 mM KCl; FLAA/MST with 0.1% BSA and 0.05% Tween 20 (FLAA at RT); SPR without BSA, 0.005% Tween 20; conditions: protein: commercial, tags: N-terminal His6
[6] = biological target: T2, mPD1-HIS (mouse Programmed cell Death protein 1) (mouse, UniProt Q02242 25-169); test: as above; conditions: protein: commercial, tags: C-terminal HIS
T2 sequence (Q02242 25-169): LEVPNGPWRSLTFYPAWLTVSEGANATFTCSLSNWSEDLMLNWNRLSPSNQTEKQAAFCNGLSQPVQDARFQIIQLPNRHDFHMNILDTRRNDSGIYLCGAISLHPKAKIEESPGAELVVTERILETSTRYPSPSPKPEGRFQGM

[7] = biological target: CFHR1-HIS (Complement factor H-related protein 1) (UniProt Q03591 19-330); test: as above; conditions: protein: commercial, tags: C-terminal HIS
Chain of CFHR1-HIS (Complement factor H-related protein 1) (Q03591 19-330): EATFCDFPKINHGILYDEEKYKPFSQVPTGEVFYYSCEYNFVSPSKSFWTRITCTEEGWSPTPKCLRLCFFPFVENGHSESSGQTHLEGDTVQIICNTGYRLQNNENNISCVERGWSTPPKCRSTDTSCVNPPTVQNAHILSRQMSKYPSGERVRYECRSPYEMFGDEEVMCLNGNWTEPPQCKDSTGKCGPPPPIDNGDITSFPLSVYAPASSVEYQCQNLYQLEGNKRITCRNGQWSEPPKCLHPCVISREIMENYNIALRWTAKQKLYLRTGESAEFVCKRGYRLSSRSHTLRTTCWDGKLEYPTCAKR

[8] = biological target: T1, HIS-NDM-1 (New Delhi …); test: FLAA; signal exceeds initial library; not seen in SPR; 20 mM Tris-HCl pH 7.4, 140 mM NaCl, 5 mM MgCl2, 1 mM CaCl2, 1 mM KCl; FLAA/MST with 0.1% BSA and 0.05% Tween 20 (FLAA at RT); SPR without BSA, 0.005% Tween 20; conditions: protein: commercial; tags: N-terminal His6
[9] = biological target: T2, mPD1-HIS (mouse Programmed cell Death …); test: SPR; protein immobilized, 1 uM aptamer; 20 mM Tris-HCl pH 7.4, 140 mM NaCl, 5 mM MgCl2, 1 mM CaCl2, 1 mM KCl; FLAA/MST with 0.1% BSA and 0.05% Tween 20 (FLAA at RT); SPR without BSA, 0.005% Tween 20; conditions: protein: commercial; tags: C-terminal HIS
[10] = biological target: T1, HIS-NDM-1 (New Delhi …); test: SPR; aptamer immobilized; text gives upper limit 4.43E-09; 20 mM Tris-HCl pH 7.4, 140 mM NaCl, 5 mM MgCl2, 1 mM CaCl2, 1 mM KCl; FLAA/MST with 0.1% BSA and 0.05% Tween 20 (FLAA at RT); SPR without BSA, 0.005% Tween 20; conditions: protein: commercial; tags: N-terminal His6; label: 5'-BiotinTEG (SPR kinetics); 5'-Cy5 (MST); none (screens)
[11] = label: 5'-BiotinTEG (SPR), 5'-Cy5 (MST), none (FLAA)
[12] = label: 5'-BiotinTEG (SPR kinetics), 5'-Cy5 (MST), none (screens)

## GTATCTGGTGGTCTATGGCGTCATAGGTACCATGGGGGACTGCTCGGGATTGCGGATTCATGGCATAGACGACGAAGAAC [NDM1-H14-01]
[1]
  Kd: 28.1 nM

B1: NDM1-H14-02 (ssDNA)
DNA: GTATCTGGTGGTCTATGGCCAGTATGGCTGTTCAAGTCTTCAGAGGGTCTGCTCGGGATTGCGCATAGACGACGAAGAAC
[2]
  binding result: binds

B2: Con1 (ssDNA)
DNA: GGGAATTCGAGCTCGGTACCGGCTGCTTTGCTGCAGATTTGTGGGTGGGTGGGTGGTGATCTGCAGGCATGCAAGCTTGG
[3]; label: 5'-Cy5
  binding result: no binding

B3: NDM1-H14.2_43 (ssDNA)
DNA: GTATCTGGTGGTCTATGGCCGCTATCCGCAATCTGTCTCTTTTCTTTATTCTTTTACTCACCGCATAGACGACGAAGAAC
[4]
  binding result: no binding
[5]; [11]
  Kd: 745 nM
[3]; [11]
  Kd: 2820 nM

## CGTCATAGGTACCATGGGGGACTGCTCGGGATTGCGGATTCATG (ssDNA) [NDM1-H14-01-FR]
[6]; label: 5'-BiotinTEG
  Kd: 0.125 nM
[7]; label: 5'-BiotinTEG
  Kd: 0.0286 nM
[5]; label: 5'-BiotinTEG
  Kd: 5.91 nM

B4: NDM1-H14-25 (ssDNA)
DNA: GTATCTGGTGGTCTATGGCAAACGTTCTGAGTTAGGCTTATTTTTCTCTCTTCCCTTCGCCGCATAGACGACGAAGAAC
[8]
  binding result: binds
[9]
  binding result: binds

B5: NDM1-H14-01 (ssDNA)
DNA: GTATCTGGTGGTCTATGGCGTCATAGGTACCATGGGGGACTGCTCGGGATTGCGGATTCATGGCATAGACGACGAAGAAC
[10]
  Kd: 4.34 nM
[6]; [12]
  Kd: 0.0986 nM
[7]; [12]
  Kd: 0.0449 nM
